The values that follow are results of earlier work, collected in patent US20140322315A1, “CYSTEAMINE AND/OR CYSTAMINE FOR TREATING ISCHEMIC INJURY” (The Regents of the University of California, priority 2011, published 2014).

This series has as its system acute ischemic stroke.

B1: tPA: tissue plasminogen activator, FDA approved 1996 as therapy for acute ischemic stroke (protein, UniProt P00750 36-562, looked up)
Tissue-type plasminogen …: SYQVICRDEKTQMIYQQHQSWLRPVLRSNRVEYCWCNSGRAQCHSVPVKSCSEPRCFNGGTCQQALYFSDFVCQCPEGFAGKCCEIDTRATCYEDQGISYRGTWSTAESGAECTNWNSSALAQKPYSGRRPDAIRLGLGNHNYCRNPDRDSKPWCYVFKAGKYSSEFCSTPACSEGNSDCYFGNGSAYRGTHSLTESGASCLPWNSMILIGKVYTAQNPSAQALGLGKHNYCRNPDGDAKPWCHVLKNRRLTWEYCDVPSCSTCGLRQYSQPQFRIKGGLFADIASHPWQAAIFAKHRRSPGERFLCGGILISSCWILSAAHCFQERFPPHHLTVILGRTYRVVPGEEEQKFEVEKYIVHKEFDDDTYDNDIALLQLKSDSSRCAQESSVVRTVCLPPADLQLPDWTECELSGYGKHEALSPFYSERLKEAHVRLYPSSRCTSQHLLNRTVTDNMLCAGDTRSGGPQANLHDACQGDSGGPLVCLNDGRMTLVGIISWGLGCGQKDVPGVYTKVTNYLDWIRDNMRP
B1: the “improvement in clinical outcome” value (some, but not all, of the controlled trials in acute ischemic stroke) is listed as 30-55%. Where the note is “thrombolytic therapy with tPA”, the “complete resolution of symptoms, share of the time” value is “less than 40%”.
